Measured values from IntAct's records for PubMed 35512704.

B1: Speckle-type POZ protein (Homo sapiens), O43791 (parent)
chain: MSRVPSPPPPAEMSSGPVAESWCYTQIKVVKFSYMWTINNFSFCREEMGEVIKSSTFSSGANDKLKWCLRVNPKGLDEESKDYLSLYLLLVSCPKSEVRAKFKFSILNAKGEETKAMESQRAYRFVQGKDWGFKKFIRRDFLLDEANGLLPDDKLTLFCEVSVVQDSVNISGQNTMNMVKVPECRLADELGGLWENSRFTDCCLCVAGQEFQAHKAILAARSPVFSAMFEHEMEESKKNRVEINDVEPEVFKEMMCFIYTGKAPNLDKMADDLLAAADKYALERLKVMCEDALCSNLSVENAAEILILADLHSADQLKTQAVDFINYHASDVLETSGWKSMVVSHPHLVAEAYRSLASAQCPFLGPPRKRLKQS
partner: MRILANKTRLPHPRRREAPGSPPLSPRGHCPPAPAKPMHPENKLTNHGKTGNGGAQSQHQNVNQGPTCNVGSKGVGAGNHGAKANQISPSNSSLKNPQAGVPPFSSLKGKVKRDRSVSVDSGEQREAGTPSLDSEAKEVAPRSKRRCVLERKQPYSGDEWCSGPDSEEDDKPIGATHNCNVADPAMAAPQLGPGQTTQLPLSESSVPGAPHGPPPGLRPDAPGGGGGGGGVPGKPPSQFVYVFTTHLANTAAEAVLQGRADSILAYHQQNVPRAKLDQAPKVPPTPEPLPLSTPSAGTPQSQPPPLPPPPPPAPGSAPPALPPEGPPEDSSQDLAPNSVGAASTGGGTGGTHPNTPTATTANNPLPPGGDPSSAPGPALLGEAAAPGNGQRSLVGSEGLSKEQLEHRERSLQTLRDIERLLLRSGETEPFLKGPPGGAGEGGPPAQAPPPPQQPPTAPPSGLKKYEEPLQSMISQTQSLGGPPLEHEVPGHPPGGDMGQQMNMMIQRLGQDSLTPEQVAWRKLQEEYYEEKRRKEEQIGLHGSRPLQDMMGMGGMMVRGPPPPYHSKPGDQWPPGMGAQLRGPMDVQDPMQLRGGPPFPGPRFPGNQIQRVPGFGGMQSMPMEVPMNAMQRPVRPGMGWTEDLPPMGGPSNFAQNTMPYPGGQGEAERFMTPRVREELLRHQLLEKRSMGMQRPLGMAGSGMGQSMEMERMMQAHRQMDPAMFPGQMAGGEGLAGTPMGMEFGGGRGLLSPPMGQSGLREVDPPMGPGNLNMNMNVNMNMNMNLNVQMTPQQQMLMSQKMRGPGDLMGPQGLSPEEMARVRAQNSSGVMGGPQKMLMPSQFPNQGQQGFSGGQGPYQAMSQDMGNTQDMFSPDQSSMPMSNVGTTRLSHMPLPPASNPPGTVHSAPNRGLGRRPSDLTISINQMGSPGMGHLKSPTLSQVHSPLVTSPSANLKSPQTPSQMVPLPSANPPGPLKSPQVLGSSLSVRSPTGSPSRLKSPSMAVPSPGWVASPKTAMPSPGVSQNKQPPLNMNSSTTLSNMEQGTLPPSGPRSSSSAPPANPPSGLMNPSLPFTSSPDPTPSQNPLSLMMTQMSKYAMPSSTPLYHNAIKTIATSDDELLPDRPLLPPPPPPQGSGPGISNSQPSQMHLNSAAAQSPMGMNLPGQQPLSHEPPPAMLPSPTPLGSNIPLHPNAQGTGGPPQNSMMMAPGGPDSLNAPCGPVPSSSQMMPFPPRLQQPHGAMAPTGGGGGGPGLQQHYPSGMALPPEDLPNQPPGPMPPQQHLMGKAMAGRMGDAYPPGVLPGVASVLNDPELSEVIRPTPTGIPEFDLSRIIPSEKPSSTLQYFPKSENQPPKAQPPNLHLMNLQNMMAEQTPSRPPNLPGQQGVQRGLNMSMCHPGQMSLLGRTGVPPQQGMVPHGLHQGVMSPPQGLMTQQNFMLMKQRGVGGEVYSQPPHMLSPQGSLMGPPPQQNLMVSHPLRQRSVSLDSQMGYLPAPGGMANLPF
B2: Speckle-type POZ protein (Homo sapiens), O43791 (parent)
chain: B1 chain
partner: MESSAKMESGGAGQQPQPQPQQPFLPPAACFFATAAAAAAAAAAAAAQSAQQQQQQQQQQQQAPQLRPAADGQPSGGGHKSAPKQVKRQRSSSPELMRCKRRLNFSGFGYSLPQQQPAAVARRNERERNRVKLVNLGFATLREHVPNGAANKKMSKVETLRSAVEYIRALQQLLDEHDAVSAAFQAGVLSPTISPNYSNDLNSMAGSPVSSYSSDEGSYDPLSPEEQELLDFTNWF

Variants of: B1
Conditions: with bcl9l_human BCL9L

| Variant | effect of a mutation on the interaction |
| --- | --- |
| MSRVPSPPPPAEMSSGPVAESWCYTQIKVVKFSYMWTINNFSFCREEMGEVIKSSTFSSGANDKLKWCLRVNPKGLDEESKDYLSLYLLLVSCPKSEVRAKCKFSILNAKGEETKAMESQRAYRFVQGKDWGFKKFIRRDFLLDEANGLLPDDKLTLFCEVSVVQDSVNISGQNTMNMVKVPECRLADELGGLWENSRFTDCCLCVAGQEFQAHKAILAARSPVFSAMFEHEMEESKKNRVEINDVEPEVFKEMMCFIYTGKAPNLDKMADDLLAAADKYALERLKVMCEDALCSNLSVENAAEILILADLHSADQLKTQAVDFINYHASDVLETSGWKSMVVSHPHLVAEAYRSLASAQCPFLGPPRKRLKQS [F102C] | with no effect |

Variants of: B1
Conditions: with bcl9l_human BCL9L
Remark: another data set of the same source

| Variant | effect of a mutation on the interaction |
| --- | --- |
| MSRVPSPPPPAEMSSGPVAESWCYTQIKVVKFSYMWTINNFSFCREEMGEVIKSSTFSSGANDKLKWCLRVNPKGLDEESKDYLSLYLLLVSCPKSEVRAKFKFSILNAKGEETKAMESQRAYRFVQGKDWGLKKFIRRDFLLDEANGLLPDDKLTLFCEVSVVQDSVNISGQNTMNMVKVPECRLADELGGLWENSRFTDCCLCVAGQEFQAHKAILAARSPVFSAMFEHEMEESKKNRVEINDVEPEVFKEMMCFIYTGKAPNLDKMADDLLAAADKYALERLKVMCEDALCSNLSVENAAEILILADLHSADQLKTQAVDFINYHASDVLETSGWKSMVVSHPHLVAEAYRSLASAQCPFLGPPRKRLKQS [F133L] | with no effect |

Variants of: B1
Conditions: with bcl9l_human BCL9L
Remark: another data set of the same source

| Variant | effect of a mutation on the interaction |
| --- | --- |
| MSRVPSPPPPAEMSSGPVAESWCYTQIKVVKFSYMWTINNFSFCREEMGEVIKSSTFSSGANDKLKWCLRVNPKGLDEESKDYLSLYLLLVSCPKSEVRAKFKFSILNAKGEETKAMESQRAYRFVQGKDWGVKKFIRRDFLLDEANGLLPDDKLTLFCEVSVVQDSVNISGQNTMNMVKVPECRLADELGGLWENSRFTDCCLCVAGQEFQAHKAILAARSPVFSAMFEHEMEESKKNRVEINDVEPEVFKEMMCFIYTGKAPNLDKMADDLLAAADKYALERLKVMCEDALCSNLSVENAAEILILADLHSADQLKTQAVDFINYHASDVLETSGWKSMVVSHPHLVAEAYRSLASAQCPFLGPPRKRLKQS [F133V] | with no effect |

Variants of: B1
Conditions: with bcl9l_human BCL9L
Remark: another data set of the same source

| Variant | effect of a mutation on the interaction |
| --- | --- |
| MSRVPSPPPPAEMSSGPVAESWCYTQIKVVKFSYMWTINNFSFCREEMGEVIKSSTFSSGANDKLKWCLRVNPKGLDEESKDYLSLCLLLVSCPKSEVRAKFKFSILNAKGEETKAMESQRAYRFVQGKDWGFKKFIRRDFLLDEANGLLPDDKLTLFCEVSVVQDSVNISGQNTMNMVKVPECRLADELGGLWENSRFTDCCLCVAGQEFQAHKAILAARSPVFSAMFEHEMEESKKNRVEINDVEPEVFKEMMCFIYTGKAPNLDKMADDLLAAADKYALERLKVMCEDALCSNLSVENAAEILILADLHSADQLKTQAVDFINYHASDVLETSGWKSMVVSHPHLVAEAYRSLASAQCPFLGPPRKRLKQS [Y87C] | with no effect |

Variants of: B2
Conditions: with ascl1_human ASCL1, P50553

| Variant | effect of a mutation on the interaction |
| --- | --- |
| MSRVPSPPPPAEMSSGPVAESWCYTQIKVVKFSYMWTINNFSFCREEMGEVIKSSTFSSGANDKLKWCLRVNPKGLDEESKDYLSLCLLLVSCPKSEVRAKFKFSILNAKGEETKAMESQRAYRFVQGKDWGFKKFIRRDFLLDEANGLLPDDKLTLFCEVSVVQDSVNISGQNTMNMVKVPECRLADELGGLWENSRFTDCCLCVAGQEFQAHKAILAARSPVFSAMFEHEMEESKKNRVEINDVEPEVFKEMMCFIYTGKAPNLDKMADDLLAAADKYALERLKVMCEDALCSNLSVENAAEILILADLHSADQLKTQAVDFINYHASDVLETSGWKSMVVSHPHLVAEAYRSLASAQCPFLGPPRKRLKQS [Y87C] | with no effect |

Variants of: B2
Conditions: with ascl1_human ASCL1, P50553
Remark: another data set of the same source

| Variant | effect of a mutation on the interaction |
| --- | --- |
| MSRVPSPPPPAEMSSGPVAESWCYTQIKVVKFSYMWTINNFSFCREEMGEVIKSSTFSSGANDKLKWCLRVNPKGLDEESKDYLSLYLLLVSCPKSEVRAKFKFSILNAKGEETKAMESQRAYRFVQGKDWGLKKFIRRDFLLDEANGLLPDDKLTLFCEVSVVQDSVNISGQNTMNMVKVPECRLADELGGLWENSRFTDCCLCVAGQEFQAHKAILAARSPVFSAMFEHEMEESKKNRVEINDVEPEVFKEMMCFIYTGKAPNLDKMADDLLAAADKYALERLKVMCEDALCSNLSVENAAEILILADLHSADQLKTQAVDFINYHASDVLETSGWKSMVVSHPHLVAEAYRSLASAQCPFLGPPRKRLKQS [F133L] | with no effect |

Variants of: B2
Conditions: with ascl1_human ASCL1, P50553
Remark: another data set of the same source

| Variant | effect of a mutation on the interaction |
| --- | --- |
| MSRVPSPPPPAEMSSGPVAESWCYTQIKVVKFSYMWTINNFSFCREEMGEVIKSSTFSSGANDKLKWCLRVNPKGLDEESKDYLSLYLLLVSCPKSEVRAKFKFSILNAKGEETKAMESQRAYRFVQGKDWGVKKFIRRDFLLDEANGLLPDDKLTLFCEVSVVQDSVNISGQNTMNMVKVPECRLADELGGLWENSRFTDCCLCVAGQEFQAHKAILAARSPVFSAMFEHEMEESKKNRVEINDVEPEVFKEMMCFIYTGKAPNLDKMADDLLAAADKYALERLKVMCEDALCSNLSVENAAEILILADLHSADQLKTQAVDFINYHASDVLETSGWKSMVVSHPHLVAEAYRSLASAQCPFLGPPRKRLKQS [F133V] | with no effect |

Variants of: B2
Conditions: with ascl1_human ASCL1, P50553
Remark: another data set of the same source

| Variant | effect of a mutation on the interaction |
| --- | --- |
| MSRVPSPPPPAEMSSGPVAESWCYTQIKVVKFSYMWTINNFSFCREEMGEVIKSSTFSSGANDKLKWCLRVNPKGLDEESKDYLSLYLLLVSCPKSEVRAKCKFSILNAKGEETKAMESQRAYRFVQGKDWGFKKFIRRDFLLDEANGLLPDDKLTLFCEVSVVQDSVNISGQNTMNMVKVPECRLADELGGLWENSRFTDCCLCVAGQEFQAHKAILAARSPVFSAMFEHEMEESKKNRVEINDVEPEVFKEMMCFIYTGKAPNLDKMADDLLAAADKYALERLKVMCEDALCSNLSVENAAEILILADLHSADQLKTQAVDFINYHASDVLETSGWKSMVVSHPHLVAEAYRSLASAQCPFLGPPRKRLKQS [F102C] | with no effect |
